Measured values: the DeepSol protein solubility set

Experiment: soluble on expression in E. coli; label from the status in PepcDB or PDB records

Soluble on expression in E. coli, soluble:
SEFQSTVVATVDCQKQVRSWRLLRSFIQLLIPTCNCTLVQELEQDNTNLRGKKLYNDIKSRTSSFRSSSSLSSSTVTGTIFGYRKGKINFCIQTPRKSTNLDLLLELAVPTTVLAREMREGALRIVLERNNEKQDDDSFLSKPFWNMYCNGKRVGYARKRSPSQDDMTALTALSKVVVGAGVVTGKELGRFDDELMYLRASFRRVNGSKESESFHLIDPAGNIGQELSIFIVPSSV
DIVMTQSPDSLAVSPGERATINCKSSQNLLDSSFDTNTLAWYQQKPGQPPKLLIYWASSRESGVPDRFSGSGSGTDFTLTISSLQAEDVAVYYCQQYYSTPPTFGGGTKVEIKR
GMKCNDKLAPFEVFDHVVNKKLSFRHVTMDDVDMLHSWMHEEHVIPYWKLNIPLVDYKKHLQTFLNDDHQTLMVGAINGVPMSYWESYWVKEDIIANYYPFEEHDQGIHLLIGPQEYLGQGLIYPLLLAIMQQKFQEPDTNTIVAEPDRRNKKMIHVFKKCGFQPVKEVELPDKIGLLMKCEQNVFEKRWSDWKMNKF
MLQGHRTWVFENKPVIISTGVVGGPFEAKGNIPEDFDILHEDLWLGQDSYEKAHKILFEEACSRATEKAELRKDDIQFVLAGDLINQITPTSFACRTLGTPYLGLFGACSTSMEGLALGASIVNAKGAKYLLTGASSHNTAVEKQFRYPTEYGGQKPPTAQWTVTGAGAAILSDTGHGPRVTSATIGRVIDMGLTDPFNMGGAMAPAAVDTIEAHLRERQIDASYYDLIVTGDLGHVGREIAYDLLHKHGTKVTSEQFQDCGIIIYREGQPVIAGASGPGCSATVVYGHLLNRMKRGEFKKILVVATGALLSPLTFQQEETIPCIAHAVSIEFGGATQLEHHHHHH
MKKILLLNGPNLNMLGKREPHIYGSQTLSDIEQHLQQSAQAQGYELDYFQANGEESLINRIHQAFQNTDFIIINPGAFTHTSVAIRDALLAVSIPFIEVHLSNVHAREPFRHHSYLSDVAKGVICGLGAKGYDYALDFAISELQKIQLGEMMNG

Soluble on expression in E. coli, not soluble:
MEANKREIVDFGGLRSYFFPNLAHYITKNDEELFNNTSQANKLAAFVLGASKDAPGDEDILEMILPNDANAAVIAAGMDVCLLLGDKFRPKFDAAAEKLSGLGHAHDLVSVIDDDKKLGMLARKAKLKKTEDAKILQALLKVIAIDDAAEKFVELTELVSQLDLDFDVYVLTKILGLISEETSDEVDIIRDNVVNAFDSCKPLLKQLMLDGPKSEPADPFISLLMDPLEESVGKVVNHIAQLFEEASKNEGDESLVLRSQLGYQLFFLIVRSLADGKREVSKKILSGIPTSVRAEVFPGLQRSVYKSAVFLGNHIIQVLLGSKKSFEDWDVVGVAKDLESAWKRRAIAELIKKFQVSILEQCFDKPVPLIPQSPLNNDAVIDNVNKALQFALWLTEFYGSENETEALGELRFLDSTSKNLLVDSFKKFVQGINSKTHVTRIVESLEKCCLSDTPSGRKSNVQPSTSQQQDSAYTKEEMTTVHNTYSVNTKAQVLNGLSDTNSSGLLVDSKDSLSLQEISCDEVDSSTLLSSSRNIGEGVTVKAVDPVPEKVNDAQQQQTVNEIEMASDANQDTSSSASPEVAPSFSTDGWDSPTKSVALPPGMQQIDEEETTVADKDSTPQPQARAETAWGSGDATPMPLPAPTNQYKVSGFGEAKVAKGFGQFAPTSSAYGGGGGRGGYGGGDRGGRGGYGGDRGGRGGYGGGDRGGRGGYGGDRGRGGYGGRGGRGGF
MGSDKIHHHHHHKDDADAPLRFYDSKYEVPMGGRRYLGIESGNGDYSLEIGNPRIASAGIESGWSGVPAGRMIYISGILTGSTYLKVTDNATQETLTLPIKVVDYYEDLNLIHGSSSLRPNGDENLLPGVDDIFLVSNAARDAYFFKQGQRTAFSSGLELITKGTYALKQEDENKATLTLTFSLDASPATEHHFTVWGNTYLLHRLDKNLHLNWGTPPIGETRTSPAPPPAYTLEEITEGAEPGTGRQVGFILNYKEIPTGILP
MGSDKIHHHHHHMDDHGRSRPTQPTLYVLDTNVLIHDPNALLNFQEHRVAIPMTVLEELDKLKTGKHTIAAECRQAIRLIDQVLGEATPEQVEGGVPIQRGKNGPSGSLSILMSKRAEPITWLPEHLNDNKIINQLVELKSRHSGVRVVLVTKDINMRLKARACGVDAEDYHTDQLIDDVALLSRGYHSLAGSFWDRVSKVETRQDHGRTWHRVQLTDNLPAVHINEFIVDEQGFVGWIKGIQQDELTILDLHQEPLLHQEAWGLRPRDVYQSLALYALLDPDIHLVNLSGAAGSGKTILALAAAIEQTMVSKRYRRIIATRSVQGLDEDIGFLPGTEAEKMEPWLGAITDNLEALHMDDECTHGSVDYILSKVPLQFKSLNYIRGRSFQQSLILIDECQNLTPHQMKTIITRAGSGSKVICLGNLAQIDTPYLSATSSGLTYLTERFKDFPHGVHVTLQGVPRSVLAEYAEAHM
MPLTPLDIHNKEFTRGFRGYDEDEVNEFLDQIIKDYEAVLREKKELFDRVTDLDEKLEHFQNIEETLNKSILVAQESAEEVRRNAQKEAQLIVKEAEKNADRIINDALAKSRKIMLEMEELKKQASVYKMRFKMLIEAQLEMLNTDDWDEVTEDSGDERSEEYAE
YQNYGIMAAIDHINALKDLVKRFPKFADLPKIYGGGSYGGYLSLLIAKIAPWYVDGVIDNSGVCLPFLACILGREMNQGEFYFEGSGYRLYCFVYKYWNRNMNSSYYFGDENYLIRAVLNSNHLQIQSNLNKNTIFVSYHSIQDMGAPVQNKIELYKCYQELGYDATLHLIKDEN
MNYLESEISALYASAHELCYLGMDGRPIYSDQFTRLNRDVFSQANALYDKRGNSHEEEARLCLSLLMGYNATLYNNGDKEERIQHILDRCWDVLEHLPASLLKVQLLVYCYGEVFDEELAREAQAIIDTWQDRKLSEEEREVVERLKDVQENPYPWSEVE
LARMSEREIDISLGTTVGRSLWRLAQGHDDREVAPRAIAKQISVEHTYPKDLVTSRAVDTAIIRASRESHRRLLDDGRGARTVSVKLRMADFRIESRSATLPYATDNLDTVTATALKLARYPDEVGPIRLVGVGLSGLEDARQDILFPELDRVVPVKDTDFEVGVSDPHDSDLEISTTDESPTAIGWRATQDIWHPDYGHGWVQGLGHGKITVRFETRTTGPGKVRTFDTNDALLSSADPINSLDWS
MHYLSPLSLSLFLFCIEGHRESFSFFPSHDDGWAEPTARSEGKRERERERERERERGERGPTDTLSLSLSQFT
MIHEASIQHGSFGKMVADWPQEKITELWAYLKKHGSRLGGNTGPYTLRQMGADTFILSNDVEAYLRNCKIIEGGKDTKKSHDAATQAFMQWQKESGRSLTEISQIIAFSTGDNRL
MRESHNVLPPVAPVRPITRTHHGIDFVDNYEWLRDKENPETIQYLEAENAFVEQQTAHLSQLKDNIYHEIKSRVKETDMSVPQRAGDFWYYGRSVEGKSYGYSCRIPVSEGADAWVPPTIPEREPVAGEQIILDANELAEGHEFFALGASTVTTSGRYLAYSVDTEGDERFTLRVKDLATGEHLADEIPDVFYGATWAGEEYLFYQRVDAAWRPDSVWRHKIGTDPATDVQVFHEADERFNTGVGATRSERFLMIESASKITSEIWVLDLDNPTGDFRCVLPRQAGVEYDIDHAVVAGRDTWIVTHNAAGPNFEVGWTPVTDEEISLDSLEVLVPHRDEVRIEGVDTYRDHIVLAYRSGAIGRAAVMQLNADGFGTFEEITFDEELYTIGVGGHPEWDTPVVRMVYVSFTQPSQVFDYWIADGRRTLLKQQEVVGGYNADDYTASRLWVEAHDGVRIPVSLIHRSDLDLSKPNPTLLYGYGSYESSIDPGFSIARLSLMDRGMVFAIAHVRGGGEMGRGWYDTGKTVTKKNTFTDFIAVADHLIEHGVTTSEMLVAEGGSAGGMLMGAVANMAGDRFKAIEAVVPFVDPLTSMLMPELPLTVTEWDEWGDPLHDVDVYNYMASYAPYENIEAKAYPNILAVTSLNDTRVLYVEPAKWIAQLRATATGGQFLLKTEMSAGHGGVSGRYEKWKQTAFEYAWLCHQATGKES
MSLAELQMLLEEEIPSGKRALIESYQNLTRVADYCENNYIQATDKRKALEETKAYTTQSLASVAYQINALANNVLQLLDIQASQLRRMESSINHISQTVDIHKEKVARREIGILTTNKNTSRTHKIIAPANMERPVRYIRKPIDYTVLDDVGHGVKWLKAKHGNNQPARTGTLSRTNPPTQKEGHHHHHH
MGHHHHHHSHMQEWLYGEKGYYRKALIGQKGDFYTSVSVSKFFGGAVAFYIIKLLEEEKLFLPLKIVEIGSHHGHFLSDIASFLNALSVGVMEQCAFVSCEPLKELQKLQRTIFKQATQLDLMICDLKDLDFKGHENAFVVSNELFDAFACEIVKDNKMLFIAHDHKGVWGAIDEPTKELLKNLDLKQGCAPLFLEAFIKDLLEKLNEASSWVFLSFDYGDETERKDMHLRAFKNHQALDFKDILNNLASLYQQSDLTYDVNFSLVRFLFEKHHAQFSFFKTQANALLDMGLMGLLETFSKSVGYERYLKEAAKIKPLISPGGLGERFKALEFVKKNKM
MQFSTLIRVAVFAVLAIATLADYDDNSVGTIPVAVDLDYFSNYVKKGGPQGPLRFGKRRGPSGPLRFGKRSSFHVAPAAEDVASWYQ
MHVLIVDDEPLAREELSYLVSQHPQVTSVAEADSVAEAMEEMMDQKPDLLFLDIHLTDESGFDLAEKLTHLKKAPYLVFATAYDQYALKAFQVNAKDYILKPFEEEKITQVIEKASKEMGQAVPENTAEKGPKSEAIPIQGEDRIYLVAPEDIYLVSVEERQLSIFVDQQVYKMTGTLNSIEQKLPATLFIKTHRSFILNRTKIQEIQPWFNNTLQVILTNGSKVPVSRSYVKEFKEKLGLS
MGSDKIHHHHHHMIKFGEAVLGNEIKAIVNVALGKGELIENTFTNALTRGNCVFANLRPNLIVKPLTLVVPRHNIESEIQDELFQGVIQYAVAKAVADLDLDEDLKVVVSVNVPEVPITNLNKRKLFQYFYASAKLAINRALNEYPSKEKVKKEKYRALHPLVGFRDVRLEYPPYLQIALDVPTMENLEFLLQTIPNSDHIILEAGTPLIKKFGLEVIEIMREYFDGFIVADLKTLDTGRVEVRLAFEATANAVAISGVAPKSTIIKAIHECQKCGLISYLDMMNVSEPQKLYDSLKLKPDVVILHRGIDEETFGIKKEWKFKENCLLAIAGGVGVENVEELLKEYQILIVGRAITKSKDPGRVIRMFINKMGYDIDTYRLYFDEDEDIGEEL
MRKPKITVIGGGTGIPVILKSLRLEDVEITAVVTVADDGGSSGELRSVMQLTPPGDLRNVLVALSDMPKFYEQIFQYRFAEGDGDFAGHPLGNLIIAGVAEMQGSTYNAMQSLTQFFHTTGKIYPSSEHPLTLHAVFKDGHEVVGESQIADYKGMIDHVYVTNTYNEETPTASRKVVDAILESDMIVLGPGSLFTSILPNLVIPEIKQALLETRAEVAYVCNIMTQRGETEHFTDADHVEVLKRHLGQDAIDTVLVNIEKVPESYMENNHFDEYLVQVEHDFSGLRKHARRVISSNFLKLEKGGAFHHGDFVVEELMNLVGTHLLEHHHHHH
MGSDKIHHHHHHMKEPLSLSFDEQMALFEERGMQMTSKDVEKLKVIGYYRIKQFAAPLANKKIVNENTVYDYKGIYFSDVLKRYYQDKNLRIHLLHAIEKIEVALKTWVAFILGEQYGAFGYLNFSEWCDKNRYSKFEIEKRQFFFKKDLLRATSRSCTEDIKLKKNKEKDNFPSIWLAVEVLTFGELVRLVEIMSTRNKRKLSKMFRCTDIELLSWLKCINFVRNACAHNANVIDLQLETKPVCRSDWKDYLYNVNKSNNGTPSNKLAIVIFIIKTLVTPINERYGWKNIRRNIARLVDSSDKNAHLLGFSDCASAYKVLEKSNGTTTKASLP
